Assay results reported in PMC9699676, “Host nucleases generate prespacers for primed adaptation in the E. coli type I-E CRISPR-Cas system”.

What was measured:
Cas1;Cas2 [1] = biological target: T1, Cas1;Cas2 (Escherichia coli;Escherichia coli, UniProt Q46896;P45956 1-305;1-94, |); test: exonuclease footprinting; RecJ with RecBC or RecBCD, 1 mM ATP; 33-nt product; 40 mM Tris-HCl pH 7.5, 50 mM NaCl, 10 mM MgCl2, 0.5 mM TCEP, 0.1 mg/ml BSA; EMSA (Fig. S9) 25 nM DNA, 2 uM Cas1-Cas2, 37 C 30 min; footprinting 0.2 uM DNA, 1.6; details: protein: recombinant;recombinant; tags: ;; chain copies: 4;2; label: 3'-FAM on strand 1; fork; 23-bp duplex; extended 5' arm annealed to strand 3 as 15-bp blunt duplex
T1 sequence 1: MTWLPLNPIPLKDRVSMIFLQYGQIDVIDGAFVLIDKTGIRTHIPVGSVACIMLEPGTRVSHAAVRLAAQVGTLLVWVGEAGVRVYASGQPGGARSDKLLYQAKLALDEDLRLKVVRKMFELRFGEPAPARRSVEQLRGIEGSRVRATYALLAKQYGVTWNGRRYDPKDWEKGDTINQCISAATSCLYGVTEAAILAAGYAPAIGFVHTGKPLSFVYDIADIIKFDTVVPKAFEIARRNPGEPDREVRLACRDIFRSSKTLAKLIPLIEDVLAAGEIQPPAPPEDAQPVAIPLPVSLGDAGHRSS
T1 sequence 2: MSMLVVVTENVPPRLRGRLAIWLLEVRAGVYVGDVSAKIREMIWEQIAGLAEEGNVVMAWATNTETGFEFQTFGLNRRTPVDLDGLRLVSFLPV

Cas1;Cas2 [2] = biological target: T1, Cas1;Cas2; test: EMSA; strands added separately; 40 mM Tris-HCl pH 7.5, 50 mM NaCl, 10 mM MgCl2, 0.5 mM TCEP, 0.1 mg/ml BSA; EMSA (Fig. S9) 25 nM DNA, 2 uM Cas1-Cas2, 37 C 30 min; footprinting 0.2 uM DNA, 1.6; details: protein: recombinant;recombinant, tags: ;, chain copies: 4;2, label: 5'-32P on strand 1, 33-bp duplex
Cas1;Cas2 [3] = biological target: T1, Cas1;Cas2; test: EMSA; preannealed; reference for substrate 10; 40 mM Tris-HCl pH 7.5, 50 mM NaCl, 10 mM MgCl2, 0.5 mM TCEP, 0.1 mg/ml BSA; EMSA (Fig. S9) 25 nM DNA, 2 uM Cas1-Cas2, 37 C 30 min; footprinting 0.2 uM DNA, 1.6; details: protein: recombinant;recombinant; tags: ;; chain copies: 4;2; label: 5'-32P on strand 1; 23-bp duplex, 3' overhang 5 nt on each end
Cas1;Cas2 [4] = biological target: T1, Cas1;Cas2; test: EMSA; preannealed; 40 mM Tris-HCl pH 7.5, 50 mM NaCl, 10 mM MgCl2, 0.5 mM TCEP, 0.1 mg/ml BSA; EMSA (Fig. S9) 25 nM DNA, 2 uM Cas1-Cas2, 37 C 30 min; footprinting 0.2 uM DNA, 1.6; details: protein: recombinant;recombinant; tags: ;; chain copies: 4;2; label: 5'-32P on strand 1; 28-bp duplex, single 3' overhang 5 nt
Cas1;Cas2 [5] = biological target: T1, Cas1;Cas2; test: EMSA; preannealed; longer overhang stimulated binding; 40 mM Tris-HCl pH 7.5, 50 mM NaCl, 10 mM MgCl2, 0.5 mM TCEP, 0.1 mg/ml BSA; EMSA (Fig. S9) 25 nM DNA, 2 uM Cas1-Cas2, 37 C 30 min; footprinting 0.2 uM DNA, 1.6; details: protein: recombinant;recombinant, tags: ;, chain copies: 4;2, label: 5'-32P on strand 1, 28-bp duplex

B1: double fork with 15-bp blunt end (Fig. 4B, S7) (dsDNA)
DNA 1: CCGCCTTAACCGGTCAACCTAAACATTTACCGCGCGATCGGGTGTTTGGTGA
DNA 2: CACAAAAACACCCGATCGCGCGGTAAATTGGGCTTGG
DNA 3: GACCGGTTAAGGCGG
binding result (Cas1;Cas2 [1]): binds

B2: substrate 10 (33/37) (dsDNA)
DNA 1: GCCCAATTTACTACTCGTTCTGGTGTTTCTCGT
DNA 2: ACGAGAAACACCAGAACGAGTAGTAAATTGGGCTTGA
binding signal (Cas1;Cas2 [2]; single 3' overhang 4 nt with PAM): 18 fold more than preannealed

B3: substrate 9 (33/35) (dsDNA)
DNA 1: GCCCAATTTACTACTCGTTCTGGTGTTTCTCGT
DNA 2: ACGAGAAACACCAGAACGAGTAGTAAATTGGGCTT
binding signal (Cas1;Cas2 [2]; single 3' overhang 2 nt with PAM): 5 fold more than preannealed

B4: substrate 2 (dsDNA)
DNA 1: ATTTACTACTCGTTCTGGTGTTTCTCGT
DNA 2: AAACACCAGAACGAGTAGTAAATTGGGC
binding result (Cas1;Cas2 [3]): binds

B5: substrate 3 (dsDNA)
DNA 1: ATTTACTACTCGTTCTGGTGTTTCTCGT
DNA 2: ACGAGAAACACCAGAACGAGTAGTAAATTGGGC
binding result (Cas1;Cas2 [4]): binds

B6: substrate 4 (dsDNA)
DNA 1: ATTTACTACTCGTTCTGGTGTTTCTCGT
DNA 2: ACGAGAAACACCAGAACGAGTAGTAAATTGGGCTT
binding result (Cas1;Cas2 [5]; single 3' overhang 7 nt with PAM): binds

B7: substrate 5 (dsDNA)
DNA 1: ATTTACTACTCGTTCTGGTGTTTCTCGT
DNA 2: ACGAGAAACACCAGAACGAGTAGTAAATTGGGCTTGA
binding result (Cas1;Cas2 [5]; single 3' overhang 9 nt with PAM): binds
